Experimental data: paper PMC3711080 (Bioconjugate chemistry, 2011)

Columns and labels:
[1] = target: CXCR4 (Homo sapiens, UniProt P61073); assay: Competition binding against 250 nM of peptide 3, flow cytometry; settings: ratio of KD values, higher affinity of 1
[2] = target: chemokine receptor 4 (CXCR4) (human (endogenous in MDAMB231)) (UniProt P61073); assay: flow cytometry on cells
Sequence of chemokine receptor 4 (CXCR4) (human (endogenous in MDAMB231)) (P61073 whole entry): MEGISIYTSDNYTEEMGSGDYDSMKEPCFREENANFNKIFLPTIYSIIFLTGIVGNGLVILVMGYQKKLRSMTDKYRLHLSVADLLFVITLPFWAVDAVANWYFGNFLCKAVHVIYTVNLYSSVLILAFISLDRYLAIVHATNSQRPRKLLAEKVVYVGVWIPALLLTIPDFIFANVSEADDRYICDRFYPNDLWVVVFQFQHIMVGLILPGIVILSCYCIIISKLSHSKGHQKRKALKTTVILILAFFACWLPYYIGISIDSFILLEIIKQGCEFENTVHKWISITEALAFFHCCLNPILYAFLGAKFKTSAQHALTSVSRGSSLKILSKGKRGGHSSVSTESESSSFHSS

Sequence of CXCR4 (P61073 whole entry): as above

Row | Substance | receptor affinity relative to derivatives 3 and 4 [1] | Kd [2] | MFIR (mean fluorescence intensity ratio), MDAMB231^CXCR4+ cells [2]
1 | Ac-TZ14011 [compound 1] | approximately 20 times |  | 
2 | Ac-TZ14011 labeled with the MSAP reagent (peptide 3) |  | 187 nM | 45.3
3 | Ac-TZ14011 labeled with the MSAP reagent, indium-labeled (peptide 4) |  | 177 nM | 56.7
